Experimental data: patent US20160091489
Like-named read-outs stand apart in the source and are kept apart here.

Key:
[1] = test system: Ramos cell surface (protein target not named in document) (Homo sapiens); conditions: 3' biotin, Ramos cell capture efficiency in microfluidic device
[2] = test system: CEM cell surface receptor bound by sgc8 (protein not named in document) (Homo sapiens); assay: flow; conditions: whole CEM cells

Sequence: AACACCGTGGAGGATAGTTCGGTGGCTGTTCAGGGTCTCCTCCCGGTG [AuNP-TD05]
- activity ([1]; 5' thiol-(PEG)24 on gold nanoparticle): 90 % capture

Sequence: ATCTAACTGCTGCGCCGCCGGGAAAATACTGTACGGTTAGATTTTTTTTTT [sgc8]
- Kd ([2]; 3' T10 linker as printed in Table 1, 3' biotin for capture, FITC instead of biotin for flow): 3.9 nM

Sequence: ATCTAACTGCTGCGCCGCCGGGAAAATACTGTACGGTTAGA [AuNP-sgc8]
- Kd ([2]; 5' thiol-(PEG)24 on 13.6 nm gold nanoparticle, about 95 aptamers per particle, 3' biotin or FITC, multivalent gold nanoparticle conjugate): 0.1 nM

Sequence: AACACCGTGGAGGATAGTTCGGTGGCTGTTCAGGGTCTCCTCCCGGTGTTTTTTTTTT [TD05]
- activity ([1]; 3' T10 linker, aptamer alone): 41 % capture
